Reference: US7727950

Legend:
[1] = molecular target: T1, generic peptide substrate RRRLSFAEPG
T1 chain: RRRLSFAEPG

[2] = molecular target: T2, standard peptide substrate KEAKEKRQEQIAKRRRLSSLRASTSKSGGSQK
T2 chain: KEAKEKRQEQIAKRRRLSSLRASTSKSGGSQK

[3] = molecular target: T3, generic peptide substrate RARTLSFAEPG
T3 chain: RARTLSFAEPG

[4] = molecular target: T4, standard peptide substrate KKLNRTLSVA
T4 chain: KKLNRTLSVA

[5] = molecular target: T5, standard peptide substrate HMRSAMSGLHLVKRR
T5 chain: HMRSAMSGLHLVKRR

[6] = molecular target: T6, standard peptide substrate KKLRRTLSVA
T6 chain: KKLRRTLSVA

[7] = molecular target: T7, generic peptide substrate KKLNRTLSFAEPG
T7 chain: KKLNRTLSFAEPG

[8] = molecular target: T8, standard peptide substrate GRPRTSSFAEG
T8 chain: GRPRTSSFAEG

[9] = molecular target: T9, standard peptide substrate LRRASLG
T9 chain: LRRASLG

[10] = molecular target: T10, standard peptide substrate KKKVSRSGLYRSPSMPENLNRPR
T10 chain: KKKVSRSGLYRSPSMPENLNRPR

B1: rat Rho-dependent protein kinase ROCKII[1-543] (protein)
chain: MSRPPPTGKMPGAPEAAAGDGAGAGRQRKLEALIRDPRSPINVESLLDGLNSLVLDLDFPALRKNKNIDNFLNRYEKIVKKIRGLQMKAEDYDVVKVIGRGAFGEVQLVRHKASQKVYAMKLLSKFEMIKRSDSAFFWEERDIMAFANSPWVVQLFCAFQDDRYLYMVMEYMPGGDLVNLMSNYDVPEKWAKFYTAEVVLALDAIHSMGLIHRDVKPDNMLLDKHGHLKLADFGTCMKMDETGMVHCDTAVGTPDYISPEVLKSQGGDGYYGRECDWWSVGVFLFEMLVGDTPFYADSLVGTYSKIMDHKNSLCFPEDTEISKHAKNLICAFLTDREVRLGRNGVEEIKSASFFKNDQWNWDNIRETAAPVVPELSSDIDSSNFDDIEDDKGDVETFPIPKAFVGNQLPFIGFTYFRENLLLSDSPPCRENDAIQTRKSEESQEIQKKLYALEEHLSSEVQAKEELEQKCKSINTRLEKTAKELEEEITFRKNVESTLRQLEREKALLQHKNAEYQRKADHEADKKRNLENDVNSLKDQLEDL
Km [1]: > 100 µM
Km [2]: 5 µM

B2: MAPKAP-K3 (protein)
chain: MDGETAEEQGGPVPPPVAPGGPGLGGAPGGRREPKKYAVTDDYQLSKQVLGLGVNGKVLECFHRRTGQKCALKLLYDSPKARQEVDHHWQASGGPHIVCILDVYENMHHGKRCLLIIMECMEGGELFSRIQERGDQAFTEREAAEIMRDIGTAIQFLHSHNIAHRDVKPENLLYTSKEKDAVLKLTDFGFAKETTQNALQTPCYTPYYVAPEVLGPEKYDKSCDMWSLGVIMYILLCGFPPFYSNTGQAISPGMKRRIRLGQYGFPNPEWSEVSEDAKQLIRLLLKTDPTERLTITQFMNHPWINQSMVVPQTPLHTARVLQEDKDHWDEVKEEMTSALATMRVDYDQVKIKDLKTSNNRLLNKRRKKQAGSSSASQGCNNQ
Km [3]: 30 µM
Km [4]: 18 µM

B3: AMP-activated protein kinase (AMPK) (protein)
chain: MAEKQKHDGRVKIGHYVLGDTLGVGTFGKVKIGEHQLTGHKVAVKILNRQKIRSLDVVGKIKREIQNLKLFRHPHIIKLYQVISTPTDFFMVMEYVSGGELFDYICKHGRVEEVEARRLFQQILSAVDYCHRHMVVHRDLKPENVLLDAQMNAKIADFGLSNMMSDGEFLRTSCGSPNYAAPEVISGRLYAGPEVDIWSCGVILYALLCGTLPFDDEHVPTLFKKIRGGVFYIPEYLNRSIATLLMHMLQVDPLKRATIKDIREHEWFKQDLPSYLFPEDPSYDANVIDDEAVKEVCEKFECTESEVMNSLYSGDPQDQLAVAYHLIIDNRRIMNQASEFYLASSPPTGSFMDDMAMHIPPGLKPHPERMPPLIADSPKARCPLDALNTTKPKSLAVKKAKWHLGIRSQSKPYDIMAEVYRAMKQLDFEWKVVNAYHLRVRRKNPVTGNYVKMSLQLYLVDNRSYLLDFKSIDDEVVEQRSGSSTPQRSCSAAGLHRPRSSVDSSTAENHSLSGSLTGSLTGSTLSSASPRLGSHTMDFFEMCASLITALAR
Km [3]: 75 µM
Km [5]: 80 µM

B4: p38 regulated/activated kinase (PRAK) (protein)
chain: MSEESDMDKAIKETSILEEYSINWTQKLGAGISGPVRVCVKKSTQERFALKILLDRPKARNEVRLHMMCATHPNIVQIIEVFANSVQFPHESSPRARLLIVMEMMEGGELFHRISQHRHFTEKQASQVTKQIALALRHCHLLNIAHRDLKPENLLFKDNSLDAPVKLCDFGFAKIDQGDLMTPQFTPYYVAPQVLEAQRRHQKEKSGIIPTSPTPYTYNKSCDLWSLGVIIYVMLCGYPPFYSKHHSRTIPKDMRRKIMTGSFEFPEEEWSQISEMAKDVVRKLLKVKPEERLTIEGVLDHPWLNSTEALDNVLPSAQLMMDKAVVAGIQQAHAEQLANMRIQDLKVSLKPLHSVNNPILRKRKLLGTKPKDSVYIHDHENGAEDSNVALEKLRDVIAQCILPQAGKGENEDEKLNEVMQEAWKYNRECKLLRDTLQSFSWNGRGFTDKVDRLKLAEIVKQVIEEQTTSHESQ
Km [3]: 40 µM
Km [6]: > 100 µM

B5: serum and glucocorticoid-induced kinase 1 (SGK1[S422D] and lacking the N-terminal 59 residues) (protein)
chain: ISQPQEPELMNANPSPPPSPSQQINLGPSSNPHAKPSDFHFLKVIGKGSFGKVLLARHKAEEVFYAVKVLQKKAILKKKEEKHIMSERNVLLKNVKHPFLVGLHFSFQTADKLYFVLDYINGGELFYHLQRERCFLEPRARFYAAEIASALGYLHSLNIVYRDLKPENILLDSQGHIVLTDFGLCKENIEHNSTTSTFCGTPEYLAPEVLHKQPYDRTVDWWCLGAVLYEMLYGLPPFYSRNTAEMYDNILNKPLQLKPNITNSARHLLEGLLQKDRTKRLGAKDDFMEIKSHVFFSLINWDDLINKKITPPFNPNVSGPNDLRHFDPEFTEEPVPNSIGKSPDSVLVTASVKEAAEAFLGFDYAPPTDSFL
Km [7]: 4 µM
Km [8]: 4 µM

B6: protein kinase B alpha (PKBα) (protein)
chain: MDFRSGSPSDNSGAEEMEVSLAKPKHRVTMNEFEYLKLLGKGTFGKVILVKEKATGRYYAMKILKKEVIVAKDEVAHTLTENRVLQNSRHPFLTALKYSFQTHDRLCFVMEYANGGELFFHLSRERVFSEDRARFYGAEIVSALDYLHSEKNVVYRDLKLENLMLDKDGHIKITDFGLCKEGIKDGATMKTFCGTPEYLAPEVLEDNDYGRAVDWWGLGVVMYEMMCGRLPFYNQDHEKLFELILMEEIRFPRTLGPEAKSLLSGLLKKDPKQRLGGGSEDAKEIMQHRFFAGIVWQHVYEKKLSPPFKPQVTSETDTRYFDEEFTAQMITITPPDQDDSMECVDSERRPHFPQFSYSASGTA
Km [7]: 2 µM
Km [8]: 4 µM

B7: p70 ribosomal S6 kinase 1 (S6K1[T412E], lacking the C-terminal 104 residues) (protein)
chain: MRRRRRRDGFYPAPDFRDREAEDMAGVFDIDLDQPEDAGSEDELEEGGQLNESMDHGGVGPYELGMEHCEKFEISETSVNRGPEKIRPECFELLRVLGKGGYGKVFQVRKVTGANTGKIFAMKVLKKAMIVRNAKDTAHTKAERNILEEVKHPFIVDLIYAFQTGGKLYLILEYLSGGELFMQLEREGIFMEDTACFYLAEISMALGHLHQKGIIYRDLKPENIMLNHQGHVKLTDFGLCKESIHDGTVTHTFCGTIEYMAPEILMRSGHNRAVDWWSLGALMYDMLTGAPPFTGENRKKTIDKILKCKLNLPPYLTQEARDLLKKLLKRNAASRLGAGPGDAGEVQAHPFFRHINWEELLARKVEPPFKPLLQSEEDVSQFDSKFTRQTPVDSPDDSTLSESANQVFLGFEYVAPSVLES
Km [7]: 6 µM
Km [9]: 8 µM

B8: cGMP-dependent protein kinase (PKG) (protein)
chain: SELEEDFAKILMLKEERIKELEKRLSEKEEEIQELKRKLHKCQSVLPVPSTHIGPRTTRAQGISAEPQTYRSFHDLRQAFRKFTKSERSKDLIKEAILDNDFMKNLELSQIQEIVDCMYPVEYGKDSCIIKEGDVGSLVYVMEDGKVEVTKEGVKLCTMGPGKVFGELAILYNCTRTATVKTLVNVKLWAIDRQCFQTIMMRTGLIKHTEYMEFLKSVPTFQSLPEEILSKLADVLEETHYENGEYIIRQGARGDTFFIISKGKVNVTREDSPNEDPVFLRTLGKGDWFGEKALQGEDVRTANVIAAEAVTCLVIDRDSFKHLIGGLDDVSNKAYEDAEAKAKYEAEAAFFANLKLSDFNIIDTLGVGGFGRVELVQLKSEESKTFAMKILKKRHIVDTRQQEHIRSEKQIMQGAHSDFIVRLYRTFKDSKYLYMLMEACLGGELWTILRDRGSFEDSTTRFYTACVVEAFAYLHSKGIIYRDLKPENLILDHRGYAKLVDFGFAKKIGFGKKTWTFCGTPEYVAPEIILNKGHDISADYWSLGILMYELLTGSPPFSGPDPMKTYNIILRGIDMIEFPKKIAKNAANLIKKLCRDNPSERLGNLKNGVKDIQKHKWFEGFNWEGLRKGTLTPPIIPSVASPTDTSNFDSFPEDNDEPPPDDNSGWDIDF
Km [1]: 50 µM
Km [2]: 5 µM

B9: Checkpoint Kinase 1 (CHK1) (protein)
chain: MAVPFVEDWDLVQTLGEGAYGEVQLAVNRVTEEAVAVKIVDMKRAVDCPENIKKEICINKMLNHENVVKFYGHRREGNIQYLFLEYCSGGELFDRIEPDIGMPEPDAQRFFHQLMAGVVYLHGIGITHRDIKPENLLLDERDNLKISDFGLATVFRYNNRERLLNKMCGTLPYVAPELLKRREFHAEPVDVWSCGIVLTAMLAGELPWDQPSDSCQEYSDWKEKKTYLNPWKKIDSAPLALLHKILVENPSARITIPDIKKDRWYNKPLKKGAKRPRVTSGGVSESPSGFSKHIQSNLDFSPVNSASSEENVKYSSSQPEPRTGLSLWDTSPSYIDKLVQGISFSQPTCPDHMLLNSQLLGTPGSSQNPWQRLVKRMTRFFTKLDADKSYQCLKETCEKLGYQWKKSCMNQVTISTTDRRNNKLIFKVNLLEMDDKILVDFRLSKGDGLEFKRHFLKIKGKLIDIVSSQKIWLPAT
Km [3]: 5 µM
Km [10]: 5 µM
